We go through 15 molecules from patent US20250163186A1 (PHYLAXIS BIOSCIENCE, published 2025).

Assay [1] addresses T1, CH2-4 constant domains of human IgE linked to a transmembrane protein, on 293 cells (human, UniProt P01854-1 104-428).
T1 construct: domain: CH2-4 constant domains; also called human IgE-expressing 293 cells
Description: flow cytometry, 293 cells expressing human IgE CH2-4. As for the experimental part:
(§1) First, 25 μg of DNA was added to Opti-MEM Reduced Serum Medium (Gibco) mixed with 75 μL of 40 kDa Polyethylenimine (PEI) for a final concentration of 1 μg DNA and 2.5 μg PEI per mL of culture volume. The plasmid DNA was allowed to pre-complex with PEI for 15 minutes before transferring the mixture to 25 mL of 293 cells in a shake flask at a density of 2×10⁶ cells/mL. […] Next, 50 μL of cells were transferred to wells of a round-bottom 96-well assay plate for a total of 50,000 293 cells per well. In a separate 96-well plate, monomeric VHH-hIgG1-Fc fusion proteins were titrated 1:5 in a 8-point dilution series starting at 1 μM in FACS Buffer with the 8th point containing no antibody. 50 μL from each antibody dilution was added to wells containing 50 μL of FACS Buffer with transfected 293 cells which produced a 2-fold dilution of the antibody concentrations from the dilution series resulting in a 500 nM final, starting concentration of the test article titration. The test articles and 293 cells were incubated together at 4° C. for 30 minutes. Next, the 96-well plates were centrifuged at 400×g for 5 minutes and the FACS buffer containing unbound antibody was decanted. Cells were washed 1× with 150 μL 4° C. FACS Buffer. […] The cells were incubated with the fluorophore conjugated detection antibody at 4° C. for 20 minutes. 293 cells were then centrifuged and washed once as described above. Cell pellets were resuspended in 30 μL FACS Buffer and analyzed on an iQue Screener Plus flow cytometer (Sartorius, IntelliCyt) with a 1 second sip time and 1 second void time. Mean fluorescent intensity was calculated using iQue onboard software gating on GFP+ or citrine+ cells.
Background: Flow cytometry measures light scatter and fluorescence of single cells or particles in a stream.

Assay [2] concerns the target T1, CH2-4 constant domains of human IgE …. The description is as above. As for the experimental part: as §1
The source holds these as a separate data set.

Assay [3] has the same target. Described as above. As for the experimental part:
as §1
This is another data set of the same source.

The target is the same in assay [4]. The assay is described as above. As for the experimental part:
as §1
This is another data set of the same source.

Assay [5] has the same target. The assay is described as above. As for the experimental part: as §1
This is another data set of the same source.

Assay [6] concerns the target T2, recombinant human FCER1A-His (ACRO FCA-H5228) (human, UniProt P12319 26-205).
T2 construct: Bought protein; also called FceRIA; IgE receptor
T2 sequence: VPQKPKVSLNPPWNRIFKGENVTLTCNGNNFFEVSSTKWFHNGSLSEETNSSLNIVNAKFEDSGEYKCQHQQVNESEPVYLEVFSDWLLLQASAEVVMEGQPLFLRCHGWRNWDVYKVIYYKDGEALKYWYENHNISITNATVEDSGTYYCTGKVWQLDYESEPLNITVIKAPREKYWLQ
Description: SPR, antibody alone injected over captured FCER1A. As for the experimental part: (§2) All experiments were done using a Biacore T200 instrument with a CM5 chip at 25° C., Flow Cell (FC) 1 was used as the reference for FC2, and FC3 for FC4.
(§3) Anti-His antibody (1 mg/ml stock) was diluted (1:100 dilution, 0.01 mg/ml diluted concentration) in 10 mM sodium acetate buffer at pH 4.5 and immobilized onto FCs 1 and 2 to a level of ˜14000 RU, using the standard amine coupling chemistry. […] FCER1A (0.4 mg/ml stock concentration) was diluted ([…], ˜0.004 mg/ml diluted concentration) in PBS-P captured onto FC2 to levels of ˜130 RU. PBS-P was used as the capture running buffer. Overnight kinetics were performed for all analytes in the presence of PBS-P. The flow rate of all analyte solutions was maintained at 50 μL/min. The contact and dissociation times used were 120 seconds and 300 seconds, respectively. Glycine pH 1.5 was injected for 20 seconds for surface regeneration. This regeneration condition takes away all captured FCER1A. Therefore, fresh FCER1A was captured in the beginning of each injection cycle. […] All analytes were injected in duplicate. […] Sensorgrams from the overnight kinetics were plotted for further evaluation.
On the technique in general: Surface plasmon resonance follows binding to a sensor surface in real time, without labels.

For assay [7], the target named is T3, human IgE (human, UniProt P01854 1-428).
T3 construct: written under the same molecule; also called IgE (Abcam ab65866); soluble IgE
T3 sequence (P01854 other isoform, or with tags, fused parts or gaps limits assumed, form in doubt): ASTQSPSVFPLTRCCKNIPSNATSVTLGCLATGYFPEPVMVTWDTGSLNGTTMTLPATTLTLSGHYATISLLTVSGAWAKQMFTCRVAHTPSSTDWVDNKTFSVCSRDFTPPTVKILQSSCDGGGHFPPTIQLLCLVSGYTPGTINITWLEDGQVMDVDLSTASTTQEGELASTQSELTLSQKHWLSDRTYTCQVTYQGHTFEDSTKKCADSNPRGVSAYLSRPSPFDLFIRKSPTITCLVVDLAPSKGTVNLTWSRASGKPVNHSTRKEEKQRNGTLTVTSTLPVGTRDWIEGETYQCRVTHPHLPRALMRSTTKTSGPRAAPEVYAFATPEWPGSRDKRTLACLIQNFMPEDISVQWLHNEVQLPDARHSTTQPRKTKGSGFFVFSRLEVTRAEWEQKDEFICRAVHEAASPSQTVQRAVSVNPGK
Description: ELISA, plate-coated IgE. On the technique in general: In an ELISA, binding on a coated surface is turned into a signal by an enzyme label.

Assay [8] has as its target T3, human IgE. Description: ELISA, plate-coated IgE, apparent Kd (one site fit). The source says:
The data was plotted and analyzed using GraphPad Prism analysis software.

The target of assay [9] is T3, human IgE. Description: SPR (Biacore T200, 25 C), IgE captured on protein L, antibody as analyte, 1:1 fit. As for the experimental part:
as §2
Protein L (15 mg/mL) was diluted (1:50 dilution, 0.3 mg/mL diluted concentration) in 10 mM sodium acetate buffer at pH 4.5 and immobilized onto FCs 1 and 2 to a level of ˜13000 RU, using the standard amine coupling chemistry. […] PBS-P was used as the capture running buffer. Overnight kinetics were performed for all analytes in the presence of PBS-P. The flow rate of all analyte solutions was maintained at 50 μL/min. The contact and dissociation times used were 120 seconds and 600 seconds, respectively. Glycine pH 2.0 was injected for 20 seconds for surface regeneration. This regeneration condition takes away all captured ligand. Therefore, fresh ligand solution was captured in the beginning of each injection cycle. Injected analyte concentrations are from 50 nM to 0.098 nM (two-fold dilutions). All analytes were injected in duplicate. Sensorgrams from the overnight kinetics were evaluated by using 1:1 kinetics model fitting.

The target of assay [10] is T3, human IgE. As to the kind of experiment: SPR, blocks binding of 5 nM IgE to captured FCER1A. As for the experimental part:
as §2, §3

Residue numbers refer to the chain shown, from its start. In names and notes the source's numbering stands. Read-outs that look alike come from different tables or passages of the source.

T1 sequence (P01854 other isoform, or with tags, fused parts or gaps): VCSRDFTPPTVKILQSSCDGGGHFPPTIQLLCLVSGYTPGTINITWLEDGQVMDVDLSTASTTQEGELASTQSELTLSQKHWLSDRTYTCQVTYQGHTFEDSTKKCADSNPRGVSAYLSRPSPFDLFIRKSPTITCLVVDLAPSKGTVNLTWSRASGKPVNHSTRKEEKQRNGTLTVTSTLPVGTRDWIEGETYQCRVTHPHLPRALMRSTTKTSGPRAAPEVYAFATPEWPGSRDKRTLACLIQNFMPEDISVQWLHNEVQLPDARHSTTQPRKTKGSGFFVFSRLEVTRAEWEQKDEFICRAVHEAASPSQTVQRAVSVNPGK

B1: B10-NNT (Fc fusion)
VHH-Fc: EVQLVQSGGELVQAGGSLRLSCVASGLTFSSYNMGWLRQAPGKEREFVGMSGSSSTSTYYADSVKGRFTISRDNSKNTVYLQMNSLKPEDTAVYYCAARRMLSTYWSDRSWDFWGQGTQVTVKPGGPSVFLFPPKPKDTLMISRTPEVTCVVVDVSHEDPEVKFNWYVDGVEVHNAKTKPREEQYNSTYRVVSVLTVLHQDWLNGKEYKCKVSNKALPAPIEKTISKAKGQPREPQVYTLPPSRDELTKNQVNLTCLVKGFYPSDIAVEWESNGQPENNYKTTPPVLDSDGSFFLNSTLTVDKSRWQQGNVFSCSVMHEALHNHYTQKSLSLSPGK
notes: monomeric; also called parental B10 monomeric VHH-hIgG1-Fc fusion (Fc NNT)
Consider B1, for which the Kd in assay [1] stood at 1.82 nM; in assay [2], 1.82 nM; in assay [3], 1.3 nM; in [4] it was 0.872 nM; in assay [5], 0.461 nM. The Bmax turned out to be 1.36e+06 MFI in assay [2], 1.17e+06 MFI in assay [3], 2.04e+06 MFI in assay [4] and 866000 MFI in assay [5].

B2: hzB10v24-NNT (Fc fusion)
VHH-Fc: B1 VHH-Fc with V5L, Q6E, E10G, L11E, A14P, L37V, M50L, M101L, K123E
notes: monomeric
In assay [1], B2 returned a Bmax of 1.92e+06 MFI and a Kd of 2.52 nM.

B3: hzB10v26-NNT (Fc fusion)
VHH-Fc: B1 VHH-Fc with V5L, Q6E, E10G, L11E, A14P
notes: monomeric
B3 gave a Kd in [1] of 1.43 nM.

B4: hzB10v23-NNT (Fc fusion)
VHH-Fc: B1 VHH-Fc with V5L, Q6E, E10G, L11E, A14P, M50L, P88A, M101L, K123E
notes: monomeric
In [1], B4 yielded a Bmax of 1.96e+06 MFI and a Kd of 1.05 nM.

B5: hzB10v25-NNT (Fc fusion)
VHH-Fc: B1 VHH-Fc with V5L, Q6E, E10G, L11E, A14P, G49S, M50L, M101L, K123E
notes: monomeric
On to B5, for which, in assay [1], the Bmax was 2.01e+06 MFI and the Kd came to 2.8 nM.

B6: hzB10v14-IgG1 DSELF Fc region (cx12739) (Fc fusion)
chain: EVQLLESGGGEVQPGGSLRLSCVASGLTFSSYNMGWLRQAPGKEREFVGLSGSSSTSTYYADSVKGRFTISRDNSKNTVYLQMNSLKPEDTAVYYCAARRLLSTYWSDRSWDFWGQGTQVTVEPGGGGDKTHTCPPCPAPELLDGPSVFLFPPKPKDTLMISRTPEVTCVVVDVEHEDPEVKFNWYVDGVEVHNAKTKPREEQYNSTYRVVSVLTVLHQDWLNGKEYKCKVSNKAFPAPIEKTISKAKGQPREPQVYTLPPSREEMTKNQVSLTCLVKGFYPSDIAVEWESNGQPENNYKTTPPVLDSDGSFFLYSKLTVDKSRWQQGNVFSCSVMHEALHNHYTQKSLSLSPGK
notes: hzB10v14 VHH + GGGG linker + human IgG1 Fc with G236D/S267E/L328F; the Fc drives homodimer formation (bivalent); also called hzB10v14-DSELF; hzB10v14-IgG DSELF Fc
As to B6, the binding result in assay [6] is listed as “no binding (tested: 200 nM)”. In addition, the “Bmax (OD 650 nm)” value with human IgE [7] was 0.742 OD 650 nm. For the same molecule, the Kd with human IgE [8] worked out at 0.197 nM. In addition, in the assay with human IgE [9], the Kd was 0.8 nM; the koff (commonly a measure of how fast the partners let go of each other) turned out to be 0.000288 s⁻¹; the kon (in general, the second-order rate constant of association) stood at 359000 M⁻¹ s⁻¹. The IC50 (in general, the concentration that gives 50% inhibition) with human IgE [10] was approximately 2.4 nM.

B7: hzB10v30-NNT (Fc fusion)
VHH-Fc: EVQLLESGGGEVQPGGSLRLSCVASGLTFSSYNMGWLRQAPGKEREFVGLSGSSSTSTYYAESVKGRFTISRDNSKNTVYLQMTSLRAEDTAVYYCAARRLLSTYWSDRSWDFWGQGTQVTVEPGGPSVFLFPPKPKDTLMISRTPEVTCVVVDVSHEDPEVKFNWYVDGVEVHNAKTKPREEQYNSTYRVVSVLTVLHQDWLNGKEYKCKVSNKALPAPIEKTISKAKGQPREPQVYTLPPSRDELTKNQVNLTCLVKGFYPSDIAVEWESNGQPENNYKTTPPVLDSDGSFFLNSTLTVDKSRWQQGNVFSCSVMHEALHNHYTQKSLSLSPGK
notes: monomeric
Take B7: the Kd in [4] came out at 1.69 nM. In assay [5], this molecule gave a Bmax of 725000 MFI and a Kd of 1.63 nM.

B8: hzB10v37-NNT (Fc fusion)
VHH-Fc: B7 VHH-Fc with R87K, Q119L
notes: monomeric
Turning to B8, in assay [4], the Bmax came to 1.9e+06 MFI and the Kd was 1.51 nM.

B9: hzB10v39-NNT (Fc fusion)
VHH-Fc: B7 VHH-Fc with Q119L
notes: monomeric
In turn, B9 came in with a Kd in assay [4] of 1.37 nM.

B10: hzB10v44-NNT (Fc fusion)
VHH-Fc: B7 VHH-Fc with S75T, Q119L
notes: monomeric
B10: in assay [3], the Bmax was 1.38e+06 MFI and the Kd was 2.37 nM.

B11: hzB10v43-NNT (Fc fusion)
VHH-Fc: B7 VHH-Fc with N74T, Q119L
notes: monomeric
In assay [3], B11 returned a Bmax of 1.42e+06 MFI and a Kd of 2.18 nM.

B12: hzB10v41-NNT (Fc fusion)
VHH-Fc: B7 VHH-Fc with N74Q, Q119L
notes: monomeric
Take B12: in assay [3], the Bmax came out at 1.33e+06 MFI and the Kd is 2.26 nM.

B13: hzB10v40 monomeric VHH-hIgG1-Fc fusion (Fc NNT) (Fc fusion)
chain: B7 VHH-Fc with S75A, Q119L
notes: Humanized variants were tested as monomeric fusions with the non-dimerizing Fc NNT
In [3], B13 registered a Bmax of 1.38e+06 MFI and a Kd of 2.62 nM.

B14: hzB10v42-NNT (Fc fusion)
VHH-Fc: B7 VHH-Fc with N74S, Q119L
notes: monomeric
On to B14, for which, in [3], the Bmax is 1.45e+06 MFI and the Kd was found to be 2.27 nM.

B15: hzB10v38-NNT (Fc fusion)
VHH-Fc: B7 VHH-Fc with A88P, Q119L
notes: monomeric
On to B15, for which, in assay [4], the Bmax is 2.02e+06 MFI and the Kd was 0.98 nM.
